We go through 36 molecules from US20240189443A1, “PD-L1 AND TLR7 DOUBLE-TARGETING NANOBODY COUPLING DRUG AND USE THEREOF IN ANTI-TUMOR” (SHANGHAI INSTITUTE OF MATERIA MEDICA, CHINESE ACADEMY OF …, priority 2021, published 2024).

Substitutions are numbered along the chain they refer to.

Test [1] concerns the target T1, human PD-L1 on cell strain HEK293T/hPD-L1 (human, UniProt Q9NZQ7 19-290).
T1 construct: whole, on cells
Put plainly: flow cytometry on HEK293T/hPD-L1, 10 µg/mL, anti-human IgG Fc (FITC). Here is the method: (§1) The cell strain HEK293T/hPD-L1 was digested, and centrifugationwas performed to remove the supernatant; the cells were washed one time with PBS and the cell density was adjusted to 2.5×10⁶ cells/mL; each cell sample was added to a 100 μL cell suspension, that is, a 2.5×10⁵ cell/sample was comprised; different anti-human PD-L1 candidate nanobodies (the concentration is 10 μg/mL) were respectively added to the samples; incubating for 20 min at 4° C.; centrifuging, removing supernatant, and the cells were washing once with PBS; using diluted antibody anti-human IgG Fc (FITC) as secondary antibody, and the cells were re-suspended; incubating at 4° C. for 20 min; centrifuging, removing supernatant, the cells were washing twice with PBS, and transferred to a flow tube; and was performed on-machine detection by using a flow cytometer to obtain the binding activity of the candidate nanobody and human PD-L1, as shown in FIG. 13.
(In flow cytometry, cells or beads pass a laser one at a time.)

In test [2] the target is T2, HEK293T/hPD-L1 (Homo sapiens, UniProt Q9NZQ7).
T2 construct: expressed in transfected cells; host or cells: HEK293T
Put plainly: Human PD-L1 binding activity assay of candidate anti-human PD-L1 nanobodies (flow cytometry). As to conditions: nanobody 10 μg/mL. Here is the method: as §1, with “2.5×10^6” for “2.5×10⁶”, “2.5×10^5” for “2.5×10⁵”

For test [3], the target named is T3, PD-L1 (human PD-L1 protein of the ELISA of Example 16) (human, UniProt Q9NZQ7 19-238, limits assumed). Put plainly: ELISA; affinity relative to original antibody h_Nb1 VHH (SEQ ID NO.21).
In test [4] the target is T3, PD-L1 (human PD-L1 protein of the ELISA …). Put plainly: ELISA; affinity relative to original antibody h_Nb2 VHH (SEQ ID NO.25). On the technique in general: ELISA stands for enzyme-linked immunosorbent assay.

T3 sequence (Q9NZQ7 19-238 limits assumed): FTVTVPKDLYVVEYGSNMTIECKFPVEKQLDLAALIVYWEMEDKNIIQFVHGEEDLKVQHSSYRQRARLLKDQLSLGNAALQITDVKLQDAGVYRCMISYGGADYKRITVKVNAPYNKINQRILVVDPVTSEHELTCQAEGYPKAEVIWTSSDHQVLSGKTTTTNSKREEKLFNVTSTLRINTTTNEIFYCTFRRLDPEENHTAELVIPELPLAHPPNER
T1 sequence (Q9NZQ7 19-290): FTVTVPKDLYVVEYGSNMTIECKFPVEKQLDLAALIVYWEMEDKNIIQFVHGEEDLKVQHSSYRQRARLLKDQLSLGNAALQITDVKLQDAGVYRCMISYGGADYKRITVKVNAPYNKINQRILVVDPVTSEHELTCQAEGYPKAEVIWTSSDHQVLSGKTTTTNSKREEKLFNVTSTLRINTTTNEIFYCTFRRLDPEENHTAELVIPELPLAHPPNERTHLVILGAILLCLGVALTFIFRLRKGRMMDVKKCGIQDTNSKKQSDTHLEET
T2 sequence (Q9NZQ7 19-290): as above

B1: anti-human PD-L1 nanobody h_Nb5 (Fc fusion)
chain: DVQLQESGGGAVQSGESLRLSCAASGRDLMFYDVAWFRQAPGKEREGVSYIRSSGTLTKYADSVKGRFTISRDNDKNTVSLQMNSLNPEDTAKYYCAARLQSATSHSDLREDEFNSWGQGTQVTVSS
notes: not shown: Fc of human IgG1 from vector pFUSE-hIgG1-Fc
As to B1, in test [1], the binding result is “binds”.

B2: h_Nb5: anti-human PD-L1 nanobody, VHH SEQ ID NO: 33 (protein)
VHH: B1 chain
modifications: h_Nb5 Amino acid sequence of VHH
As for B2, the “Binding activity with human PD-L1” value in test [2] is “good binding activity”.

B3: h_Nb1_G99R (VHH)
VHH: DVQLQESGGGLVQPGGSLRLSCAASGFTFSSYAMSWVRQAPGKGLEWVSDINSGGDNTDYADSVKGRFTISRDNAKNTLYLQMNSLKPEDTAVYYCARRPKLCFSSWGQGTQVTVSS
notes: also called 103
In turn, B3 came in with an Increased relative affinity in test [3] of 12.1 relative.

B4: anti-human PD-L1 nanobody h_Nb1 (Fc fusion)
chain: B3 VHH with R99G
notes: Cloned into pFUSE-mIgG2b-Fc and pFUSE-hIgG1-Fc; not shown: Fc of human IgG1 from vector pFUSE-hIgG1-Fc
For the molecule B4, in test [1], the binding result was “binds”.

B5: h_Nb1_A61N (VHH)
VHH: B3 VHH with A61N, R99G
notes: also called 92
In turn, B5 came in with an Increased relative affinity in test [3] of 5.13 relative.

B6: h_Nb1_G99W (VHH)
VHH: B3 VHH with R99W
notes: also called 105
As for B6, the Increased relative affinity in test [3] was 6.16 relative.

B7: h_Nb1_D62Y (VHH)
VHH: B3 VHH with D62Y, R99G
notes: also called 99
With B7, the Increased relative affinity in test [3] is 5.8 relative.

B8: h_Nb1_G99Y (VHH)
VHH: B3 VHH with R99Y
notes: also called 106
In turn, B8 returned an Increased relative affinity in test [3] of 7.02 relative.

B9: h_Nb1_A61Q (VHH)
VHH: B3 VHH with A61Q, R99G
notes: also called 93
In test [3], B9 returned an Increased relative affinity of 4.66 relative.

B10: h_Nb1_C103M (VHH)
VHH: B3 VHH with R99G, C103M
For B10, the Increased relative affinity in test [3] was found to be 3.38 relative.

B11: h_Nb1_D62W (VHH)
VHH: B3 VHH with D62W, R99G
notes: also called 98
Regarding B11, in test [3], the Increased relative affinity was 11.7 relative.

B12: h_Nb1_C103W (VHH)
VHH: B3 VHH with R99G, C103W
Turning to B12, the Increased relative affinity in test [3] is 3.83 relative.

B13: h_Nb1_D59F (VHH)
VHH: B3 VHH with D59F, R99G
notes: also called 97
As for B13, the Increased relative affinity in test [3] was found to be 5.12 relative.

B14: h_Nb1_D59R (VHH)
VHH: B3 VHH with D59R, R99G
notes: also called 95
On to B14, for which the Increased relative affinity in test [3] was found to be 4.28 relative.

B15: h_Nb1_A61K (VHH)
VHH: B3 VHH with A61K, R99G
notes: also called 94
In the case of B15, in test [3], the Increased relative affinity amounted to 4.12 relative.

B16: h_Nb1_C103K (VHH)
VHH: B3 VHH with R99G, C103K
notes: also called 100
B16: the Increased relative affinity in test [3] worked out at 3.31 relative.

B17: h_Nb1_G99Q (VHH)
VHH: B3 VHH with R99Q
notes: also called 104
As to B17, the Increased relative affinity in test [3] worked out at 6.16 relative.

B18: h_Nb1_D59M (VHH)
VHH: B3 VHH with D59M, R99G
notes: also called 96
The molecule B18 yielded an Increased relative affinity in test [3] of 4.9 relative.

B19: anti-human PD-L1 nanobody h_Nb9 (Fc fusion)
chain: DVQLQESGGGLVQPGGSLRLSCASSGSIFGLGVKGWYRQPPGNQREMVAQIISGGRISYADSVKGRFTISRDNAKNTVYLQMNSLKPEDTAVYYCNAWGPGQRNYWGRGTQVTVSS
notes: as for B1
B19: in test [1], the binding result is reported as “binds”.

B20: anti-human PD-L1 nanobody h_Nb4 (Fc fusion)
chain: DVQLQESGGGLVQAGGSLRLSCAAPSRMFSGYTMGWYRQAPGKQRELVAQIANGGFTDYIDSVKGRFSISRDTVLNMMYLQMNSLKPEDTAVYYCNLVLVNGIPTRNWGQGTQVTVSS
notes: as for B1
On to B20, for which, in test [1], the binding result is “binds”.

B21: h_Nb4: anti-human PD-L1 nanobody, VHH SEQ ID NO: 29 (protein)
VHH: B20 chain
modifications: h_Nb4 Amino acid sequence of VHH
As for B21, the “Binding activity with human PD-L1” value in test [2] is “good binding activity”.

B22: anti-human PD-L1 nanobody h_Nb13 (Fc fusion)
chain: DVQLQESGGGLVQPGGSLRLSCAASGSIFSINAMGWYRQAPGKSRELVAAITSGGSTNYADSVKGRFTISRDTAKNTVYLLMNSLEPEDTAVYYCNVERRRPPHYLSEYDFDWGQGTQVTVSS
notes: as for B1
Take B22: the binding result in test [1] is “binds”.

B23: anti-human PD-L1 nanobody h_Nb26 (Fc fusion)
chain: B22 chain with S25P, S30R, S44Q, K64Q, T73N, L81Q, E86K, L106Y, E108D
notes: as for B1
In the case of B23, the binding result in test [1] is reported as “binds”.

B24: anti-human PD-L1 nanobody h_Nb12 (Fc fusion)
chain: DVQLQESGGGLVQAGGSLRLSCAASGRTFSSRAMGWFRQAPGKEREFVAAISGSGRNTYYADSVKGRFTISRDNAKNSVNLQMNSLKPEDTAVYYCNAAGGGITIATMTQRTQYDYWGQGTQVTVSS
notes: as for B1
Turning to B24, the binding result in test [1] is recorded as “binds”.

B25: anti-human PD-L1 nanobody h_Nb6 (Fc fusion)
chain: DVQLQESGGGLAQPGGSLRLSCAASGFTFSSYAMSWARQAPGKGLEWVAGIYRGGSDTYYADSVKGRFTISRDNTKNTLYLQMNSLKPEDTALYYCIQGWGLGYANYDYWGQGTQVTVSS
notes: as for B1
Consider B25, for which, in test [1], the binding result was “binds”.

B26: h_Nb2_G30R (VHH)
VHH: DVQLQESGGGLVQPGGSLRLSCAASGFTFRDRWMYWLRQAPGKGLEWVSSINPAGRSTYYADSVKGRFTISRDNAKNTLYLQMNSLKSEDTAVYYCTKDPGGYQKGQGTQVTVSS
notes: also called 107
B26: in test [4], the Increased relative affinity was determined as 6.23 relative.

B27: anti-human PD-L1 nanobody h_Nb2 (Fc fusion)
chain: B26 VHH with R30G
notes: as for B1
Take B27: the binding result in test [1] is recorded as “binds”.

B28: h_Nb2_G101R (VHH)
VHH: B26 VHH with R30G, G101R
notes: also called 110
As for B28, in test [4], the Increased relative affinity was determined as 6.5 relative.

B29: h_Nb2_P100Q (VHH)
VHH: B26 VHH with R30G, P100Q
notes: also called 116
In turn, B29 gave an Increased relative affinity in test [4] of 3.41 relative.

B30: h_Nb2_F29R (VHH)
VHH: B26 VHH with F29R, R30G
notes: also called 113
B30 returned an Increased relative affinity in test [4] of 1.46 relative.

B31: h_Nb2_G101W (VHH)
VHH: B26 VHH with R30G, G101W
notes: also called 111
B31 had an Increased relative affinity in test [4] of 5.92 relative.

B32: h_Nb2_G30F (VHH)
VHH: B26 VHH with R30F
notes: also called 108
The molecule B32 displayed an Increased relative affinity in test [4] of 5.11 relative.

B33: h_Nb2_G30W (VHH)
VHH: B26 VHH with R30W
notes: also called 109
In the case of B33, the Increased relative affinity in test [4] was found to be 10 relative.

B34: h_Nb2_P100E (VHH)
VHH: B26 VHH with R30G, P100E
Turning to B34, in test [4], the Increased relative affinity was 3.98 relative.

B35: h_Nb2_P100R (VHH)
VHH: B26 VHH with R30G, P100R
notes: also called 115
Molecule B35 displayed an Increased relative affinity in test [4] of 7.21 relative.

B36: h_Nb2_F29W (VHH)
VHH: B26 VHH with F29W, R30G
notes: also called 114
As to B36, the Increased relative affinity in test [4] came to 1.44 relative.
